# Patent publication US20230158141A1 (YAFEI SHANGHAI BIOLOG MEDICINE SCIENCE AND TECHNOLOGY, published 2023)
# Where a chain is given by its changes, count along the chain named. Names and notes keep the numbering of the source.
# B1: anti-PD-1 antibody 1 heavy chain K63C-R4-7 (antibody, human IgG4 S228P, kappa, V domains shown)
# VH: QVQLVQSGVEVKKPGASVKVSCKASGYTFTNYYMYWVRQAPGQGLEWMGGINPSNGGTNFNECFKNRVTLTTDSSTTTAYMELKSLQFDDTAVYYCARRDYRFDMGFDYWGQGTTVTVSS
# VL: EIVLTQSPATLSLSPGERATLSCRASKGVSTSGYSYLHWYQQKPGQAPRLLIYLASYLESGVPARFSGSGSGTDFTLTISSLEPEDFAVYYCQHSRDLPLTFGGGTKVEIKR
# modifications: R4-7 on Cys 63
# B2: anti-PD-1 antibody 1 heavy chain S54C-R4-1 (antibody, human IgG4 S228P, kappa, V domains shown)
# VH: B1 VH with S54C, C63K
# VL: B1 VL
# modifications: R4-1 on Cys 54
# B3: anti-PD-1 antibody 1 heavy chain T30C-R4-1 (antibody, human IgG4 S228P, kappa, V domains shown)
# VH: B1 VH with T30C, C63K
# VL: B1 VL
# modifications: R4-1 on Cys 30
# B4: anti-PD-1 antibody 1 heavy chain T58C-R4-1 (antibody, human IgG4 S228P, kappa, V domains shown)
# VH: B1 VH with T58C, C63K
# VL: B1 VL
# modifications: R4-1 on Cys 58
# B5: anti-CTLA-4 antibody light chain Y33C (antibody, human IgG1, kappa, V domains shown)
# VH: QVQLVESGGGVVQPGRSLRLSCAASGFTFSSYTMHWVRQAPGKGLEWVTFISYDGNNKYYADSVKGRFTISRDNSKNTLYLQMNSLRAEDTAIYYCARTGWLGPFDYWGQGTLVTVSS
# VL: not shown
# B6: anti-CTLA-4 antibody light chain Y92C (antibody, human IgG1, kappa, V domains shown)
# VH: B5 VH
# VL: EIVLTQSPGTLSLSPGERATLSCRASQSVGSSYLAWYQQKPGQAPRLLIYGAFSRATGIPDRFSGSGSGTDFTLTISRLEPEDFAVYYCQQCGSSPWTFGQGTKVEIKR
# B7: anti-CTLA-4 antibody light chain A52C (antibody, human IgG1, kappa, V domains shown)
# VH: B5 VH
# VL: not shown
# B8: Ipilimumab L52 Phe to Cys (antibody, V domains shown)
# VH: B5 VH
# VL: not shown
# modifications: chain 2 pos 53 (Kabat L52): introduced Cys carrying the conjugated group of the row (R4-1 or S47), written C
# B9: anti-CD28 antibody light chain G99C-R4-1 (antibody, human IgG4, kappa, V domains shown)
# VH: QVQLVQSGAEVKKPGASVKVSCKASGYTFTSYYIHWVRQAPGQGLEWIGCIYPGNVNTNYNEKFKDRATLTVDTSISTAYMELSRLRSDDTAVYFCTRSHYGLDWNFDVWGQGTTVTVSS
# VL: not shown
# modifications: R4-1 on Cys 99
# B10: anti-CD28 antibody light chain T93C-R4-1 (antibody, human IgG4, kappa, V domains shown)
# VH: B9 VH
# VL: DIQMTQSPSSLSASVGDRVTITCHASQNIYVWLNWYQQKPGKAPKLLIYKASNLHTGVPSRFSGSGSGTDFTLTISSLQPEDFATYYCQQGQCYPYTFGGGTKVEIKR
# modifications: R4-1 on Cys 93
# B11: anti-CTLA-4 antibody heavy chain D54C (antibody, human IgG1, kappa, V domains shown)
# VH: B5 VH with D54C
# VL: not shown
# B12: anti-CTLA-4 antibody heavy chain Y32C (antibody, human IgG1, kappa, V domains shown)
# VH: B5 VH with Y32C
# VL: not shown
# B13: anti-CTLA-4 antibody heavy chain Y107C (antibody, human IgG1, kappa, V domains shown)
# VH: B5 VH with Y107C
# VL: not shown
# B14: anti-CTLA-4 antibody heavy chain D62C (antibody, human IgG1, kappa, V domains shown)
# VH: B5 VH with D62C
# VL: not shown
# B15: anti-CTLA-4 antibody heavy chain I51C (antibody, human IgG1, kappa, V domains shown)
# VH: B5 VH with I51C
# VL: not shown
# B16: anti-PD-1 antibody 2 heavy chain A61C-R4-4 (antibody, human IgG4 S228P, kappa, V domains shown)
# VH: QVQLVESGGGVVQPGRSLRLDCKASGITFSNSGMHWVRQAPGKGLEWVAVIWYDGSKRYYCDSVKGRFTISRDNSKNTLFLQMNSLRAEDTAVYYCATNDDYWGQGTLVTVSS
# VL: EIVLTQSPATLSLSPGERATLSCRASQSVSSYLAWYQQKPGQAPRLLIYDASNRATGIPARFSGSGSGTDFTLTISSLEPEDFAVYYCQQSSNWPRTFGQGTKVEIKR
# modifications: R4-4 on Cys 61
# B17: anti-PD-1 antibody 2 heavy chain S30C-R4-1 (antibody, human IgG4 S228P, kappa, V domains shown)
# VH: B16 VH with S30C, C61A
# VL: B16 VL
# modifications: R4-1 on Cys 30
# B18: anti-PD-1 antibody 2 heavy chain K65C-R4-7 (antibody, human IgG4 S228P, kappa, V domains shown)
# VH: B16 VH with C61A, K65C
# VL: B16 VL
# modifications: R4-7 on Cys 65
# B19: anti-PD-1 antibody 2 heavy chain S32C-R4-1 (antibody, human IgG4 S228P, kappa, V domains shown)
# VH: B16 VH with S32C, C61A
# VL: B16 VL
# modifications: R4-1 on Cys 32
# B20: anti-PD-1 antibody 2 heavy chain K57C-R4-7 (antibody, human IgG4 S228P, kappa, V domains shown)
# VH: B16 VH with K57C, C61A
# VL: B16 VL
# modifications: R4-7 on Cys 57
# B21: anti-PD-1 antibody 2 heavy chain Y53C-R4-4 (antibody, human IgG4 S228P, kappa, V domains shown)
# VH: B16 VH with Y53C, C61A
# VL: B16 VL
# modifications: R4-4 on Cys 53
# B22: anti-CTLA-4 antibody heavy chain Y59C-R4-4 (antibody, human IgG1, kappa, V domains shown)
# VH: B5 VH with Y59C
# VL: not shown
# modifications: R4-4 on Cys 59
# B23: anti-CTLA-4 antibody heavy chain K65C-R4-7 (antibody, human IgG1, kappa, V domains shown)
# VH: B5 VH with K65C
# VL: not shown
# modifications: R4-7 on Cys 65
# B24: anti-CTLA-4 antibody heavy chain S31C-R4-1 (antibody, human IgG1, kappa, V domains shown)
# VH: B5 VH with S31C
# VL: not shown
# modifications: R4-1 on Cys 31
# B25: anti-CTLA-4 antibody heavy chain D106C-R4-3 (antibody, human IgG1, kappa, V domains shown)
# VH: B5 VH with D106C
# VL: not shown
# modifications: R4-3 on Cys 106
# B26: anti-CTLA-4 antibody heavy chain K58C-R4-7 (antibody, human IgG1, kappa, V domains shown)
# VH: B5 VH with K58C
# VL: not shown
# modifications: R4-7 on Cys 58
# B27: anti-CTLA-4 antibody heavy chain S30C-R4-1 (antibody, human IgG1, kappa, V domains shown)
# VH: B5 VH with S30C
# VL: not shown
# modifications: R4-1 on Cys 30
# B28: anti-CTLA-4 antibody heavy chain K65C (antibody, human IgG1, kappa, V domains shown)
# VH: B5 VH with K65C
# VL: not shown
# B29: anti-CTLA-4 antibody heavy chain Y59C (antibody, human IgG1, kappa, V domains shown)
# VH: B5 VH with Y59C
# VL: not shown
# B30: anti-CTLA-4 antibody heavy chain Y53C (antibody, human IgG1, kappa, V domains shown)
# VH: B5 VH with Y53C
# VL: not shown
# B31: anti-CTLA-4 antibody heavy chain D106C (antibody, human IgG1, kappa, V domains shown)
# VH: B5 VH with D106C
# VL: not shown
# B32: anti-CTLA-4 antibody heavy chain Y60C (antibody, human IgG1, kappa, V domains shown)
# VH: B5 VH with Y60C
# VL: not shown
# B33: anti-CTLA-4 antibody heavy chain K58C (antibody, human IgG1, kappa, V domains shown)
# VH: B5 VH with K58C
# VL: not shown
# B34: anti-PD-1 antibody 1 light chain G28C-R4-5 (antibody, human IgG4 S228P, kappa, V domains shown)
# VH: B1 VH with C63K
# VL: B1 VL with G28C
# modifications: R4-5 on Cys 28
# B35: anti-PD-1 antibody 1 light chain S60C-R4-1 (antibody, human IgG4 S228P, kappa, V domains shown)
# VH: B1 VH with C63K
# VL: B1 VL with S60C
# modifications: R4-1 on Cys 60
# B36: anti-PD-1 antibody 1 light chain T31C-R4-1 (antibody, human IgG4 S228P, kappa, V domains shown)
# VH: B1 VH with C63K
# VL: B1 VL with T31C
# modifications: R4-1 on Cys 31
# B37: anti-PD-1 antibody 1 light chain S30C-R4-1 (antibody, human IgG4 S228P, kappa, V domains shown)
# VH: B1 VH with C63K
# VL: B1 VL with S30C
# modifications: R4-1 on Cys 30
# B38: anti-PD-1 antibody 1 light chain S35C-R4-1 (antibody, human IgG4 S228P, kappa, V domains shown)
# VH: B1 VH with C63K
# VL: B1 VL with S35C
# modifications: R4-1 on Cys 35
# B39: anti-CTLA-4 antibody light chain T98C (antibody, human IgG1, kappa, V domains shown)
# VH: B5 VH
# VL: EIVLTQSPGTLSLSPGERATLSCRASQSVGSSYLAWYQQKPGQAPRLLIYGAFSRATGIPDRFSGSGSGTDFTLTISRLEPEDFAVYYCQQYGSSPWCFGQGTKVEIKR
# B40: anti-CTLA-4 antibody light chain L34C (antibody, human IgG1, kappa, V domains shown)
# VH: B5 VH
# VL: not shown
# B41: anti-CTLA-4 antibody light chain A35C (antibody, human IgG1, kappa, V domains shown)
# VH: B5 VH
# VL: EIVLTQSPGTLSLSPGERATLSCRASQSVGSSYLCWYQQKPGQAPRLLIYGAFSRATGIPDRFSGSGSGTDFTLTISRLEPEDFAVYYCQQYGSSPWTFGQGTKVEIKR
# B42: anti-CTLA-4 antibody light chain A56C (antibody, human IgG1, kappa, V domains shown)
# VH: B5 VH
# VL: not shown
# Molecular target: T1, PD-1 (UniProt Q15116 25-167, limits assumed)
# T1 sequence (Q15116 25-167 limits assumed): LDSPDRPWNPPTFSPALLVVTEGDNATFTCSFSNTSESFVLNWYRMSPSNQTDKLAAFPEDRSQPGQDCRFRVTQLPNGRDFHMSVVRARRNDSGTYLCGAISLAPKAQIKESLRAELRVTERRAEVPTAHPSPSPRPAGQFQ
# Test: ELISA, conjugate vs WT antibody
row,Binder,binding activity (% of WT)
1,B1,95.2%
2,B2,104%
3,B3,91.2%
4,B4,93.9%

# Molecular target: T2, CTLA-4 (UniProt P16410 36-162, limits assumed)
# Test: ELISA, OD mutant/OD WT; ↓=less than 70%
# T2 sequence (P16410 36-162 limits assumed): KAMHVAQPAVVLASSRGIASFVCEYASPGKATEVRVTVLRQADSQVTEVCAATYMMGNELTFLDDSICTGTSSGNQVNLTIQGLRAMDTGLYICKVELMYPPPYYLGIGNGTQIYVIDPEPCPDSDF
row,Binder,binding activity vs wild type
1,B5,< 70%
2,B6,< 70%
3,B7,< 70%

# Molecular target: T3, CTLA-4 (UniProt P16410 36-162, limits assumed)
# T3 construct: also called CTLA-4 protein
# Test: ELISA; S47 on the Cys
# T3 sequence (P16410 36-162 limits assumed): as above
row,Binder,Activity after S47 (40 kD) blocking
1,B8,16%

# Molecular target: CD28 (UniProt P10747 19-152, limits assumed)
# Test: ELISA, conjugate vs WT antibody
row,Binder,binding activity (% of WT)
1,B9,96.6%
2,B10,87%

# Molecular target: T2, CTLA-4
# Test: ELISA, OD mutant/OD WT; B=70-90%
row,Binder,binding activity (OD after mutation/OD wild type)
1,B11,70 to 90%
2,B12,70 to 90%
3,B13,70 to 90%
4,B14,70 to 90%
5,B15,70 to 90%

# Molecular target: T1, PD-1
# Test: ELISA, conjugate vs WT antibody
# Remark: another data set of the same source
row,Binder,binding activity (% of WT)
1,B16,83.9%
2,B17,107%
3,B18,92.1%
4,B19,86.8%
5,B20,89.7%
6,B21,91.6%

# Molecular target: T3, CTLA-4
# Test: ELISA; R4-1 on the Cys
row,Binder,Binding activity
1,B8,72%

# Molecular target: T2, CTLA-4
# Test: ELISA, conjugate vs WT antibody
row,Binder,binding activity (% of WT)
1,B22,89.1%
2,B23,96.2%
3,B24,110%
4,B25,87.6%
5,B26,87.6%
6,B27,93.4%

# Molecular target: T2, CTLA-4
# Test: ELISA, OD mutant/OD WT; ↓=less than 70%
# Remark: another data set of the same source
row,Binder,binding activity vs wild type
1,B28,< 70%
2,B29,< 70%
3,B30,< 70%
4,B31,< 70%
5,B32,< 70%
6,B33,< 70%

# Molecular target: T1, PD-1
# Test: ELISA, conjugate vs WT antibody
# Remark: another data set of the same source
row,Binder,binding activity (% of WT)
1,B34,108%
2,B35,89.4%
3,B36,84.4%
4,B37,86.9%
5,B38,88.3%

# Molecular target: T2, CTLA-4
# Test: ELISA, OD mutant/OD WT; B=70-90%
# Remark: another data set of the same source
row,Binder,binding activity (OD after mutation/OD wild type)
1,B39,70 to 90%
2,B40,70 to 90%
3,B41,70 to 90%
4,B42,70 to 90%

# Molecular target: T3, CTLA-4
# Test: ELISA; R4-1 on the Cys
# Remark: another data set of the same source
row,Binder,Binding activity
1,B8,72%
